# Experimental data taken from IntAct's records for PubMed 22921828.
# B1: "Secreted effector protein EspF(U)" (Escherichia coli O157:H7), P0DJ88 (parent)
# chain: MINNVSSLFPTVNRNITAVYKKSSFSVSPQKITLNPVKISSPFSPSSSSISATTLFRAPNAHSASFHRQSTAESSLHQQLPNVRQRLIQHLAEHGIKPARSMAEHIPPAPNWPAPPPPVQNEQSRPLPDVAQRLVQHLAEHGIQPARNMAEHIPPAPNWPAPPLPVQNEQSRPLPDVAQRLVQHLAEHGIQPARSMAEHIPPAPNWPAPPPPVQNEQSRPLPDVAQRLMQHLAEHGIQPARNMAEHIPPAPNWPAPTPPVQNEQSRPLPDVAQRLMQHLAEHGIQPARNMAEHIPPAPNWPAPTPPVQNEQSRPLPDVAQRLMQHLAEHGINTSKRS
# partner: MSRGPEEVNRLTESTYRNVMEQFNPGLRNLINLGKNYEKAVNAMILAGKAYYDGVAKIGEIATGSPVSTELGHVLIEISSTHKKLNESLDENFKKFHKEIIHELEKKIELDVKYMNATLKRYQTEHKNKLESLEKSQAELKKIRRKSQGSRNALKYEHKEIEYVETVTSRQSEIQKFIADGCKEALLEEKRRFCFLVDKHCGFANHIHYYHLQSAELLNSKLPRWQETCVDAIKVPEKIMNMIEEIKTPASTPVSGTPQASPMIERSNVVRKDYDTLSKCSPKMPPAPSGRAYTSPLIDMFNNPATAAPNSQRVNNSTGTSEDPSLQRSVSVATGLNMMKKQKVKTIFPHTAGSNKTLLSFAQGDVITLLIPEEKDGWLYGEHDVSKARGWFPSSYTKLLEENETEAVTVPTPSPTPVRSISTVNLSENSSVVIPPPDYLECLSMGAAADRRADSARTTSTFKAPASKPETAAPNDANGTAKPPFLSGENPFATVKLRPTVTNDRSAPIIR
# B2: Epidermal growth factor receptor kinase substrate 8 (Homo sapiens), Q12929 (parent)
# chain: MNGHISNHPSSFGMYPSQMNGYGSSPTFSQTDREHGSKTSAKALYEQRKNYARDSVSSVSDISQYRVEHLTTFVLDRKDAMITVDDGIRKLKLLDAKGKVWTQDMILQVDDRAVSLIDLESKNELENFPLNTIQHCQAVMHSCSYDSVLALVCKEPTQNKPDLHLFQCDEVKANLISEDIESAISDSKGGKQKRRPDALRMISNADPSIPPPPRAPAPAPPGTVTQVDVRSRVAAWSAWAADQGDFEKPRQYHEQEETPEMMAARIDRDVQILNHILDDIEFFITKLQKAAEAFSELSKRKKNKKGKRKGPGEGVLTLRAKPPPPDEFLDCFQKFKHGFNLLAKLKSHIQNPSAADLVHFLFTPLNMVVQATGGPELASSVLSPLLNKDTIDFLNYTVNGDERQLWMSLGGTWMKARAEWPKEQFIPPYVPRFRNGWEPPMLNFMGATMEQDLYQLAESVANVAEHQRKQEIKRLSTEHSSVSEYHPADGYAFSSNIYTRGSHLDQGEAAVAFKPTSNRHIDRNYEPLKTQPKKYAKSKYDFVARNNSELSVLKDDILEILDDRKQWWKVRNASGDSGFVPNNILDIVRPPESGLGRADPPYTHTIQKQRMEYGPRPADTPPAPSPPPTPAPVPVPLPPSTPAPVPVSKVPANITRQNSSSSDSGGSIVRDSQRHKQLPVDRRKSQMEEVQDELIHRLTIGRSAAQKKFHVPRQNVPVINITYDSTPEDVKTWLQSKGFNPVTVNSLGVLNGAQLFSLNKDELRTVCPEGARVYSQITVQKAALEDSSGSSELQEIMRRRQEKISAAASDSGVESFDEGSSH
# partner: B1 partner
# Variants of: B1
# Settings: with bi2l1_human BAIAP2L1, Q9UHR4
row,Variant,effect of a mutation on the interaction
1,W300A,decreasing interaction strength

# Variants of: B1
# Settings: with bi2l1_human BAIAP2L1, Q9UHR4
# Remark: another data set of the same source
row,Variant,effect of a mutation on the interaction
1,W300A,disrupting interaction strength

# Variants of: B2
# Settings: with bi2l1_human BAIAP2L1, Q9UHR4
row,Variant,effect of a mutation on the interaction
1,A215W,increasing interaction strength
